This is an account of results in patent US20140147444A1 (published 2014).

Broadly, the Kd is the free concentration of one partner at which half of the binding sites on the other are occupied at equilibrium, for simple one-to-one binding. A low value points to a tighter complex. As usually defined, the koff is a measure of how fast the partners let go of each other. A higher koff goes with fast dissociation. Broadly, the kon is a measure of how fast the partners come together. Higher therefore signals fast association.

Changes are numbered by the printed parent chain. Names and notes keep the numbering of the source.

B1: “AT” antibody variant N98D (heavy chain CDR3) (antibody, name in Kabat numbering, V domains shown)
VH: QVQLVQSGAEVRKPGASVKVSCKASGYDFSNYAIHWVRQAPGQRLEWMGWINAGNGNTKFSQKFQGRITVTRDTAASTAYMELRSLRSEDTAVYYCARDSSDMVRGIIIAYYFDYWGQGTLVTVSS
VL: EIVMTQSPSSLSASVGDRVTITCRASQSISRYLNWYQLKPGKAPRLLIYGASSLQSGVPSRFSGSGSGAEFTLTISSLQPEDIATYYCQHTRAFGQGTKVEIKR
notes: not shown: human IgG1 CH1, hinge, CH2 and CH3
B2: “AT” antibody variant N98W (heavy chain CDR3) (antibody, name in Kabat numbering, V domains shown)
VH: B1 VH with D102W
VL: B1 VL
notes: as for B1
B3: “AT” antibody variant N98R (heavy chain CDR3) (antibody, name in Kabat numbering, V domains shown)
VH: B1 VH with D102R
VL: B1 VL
notes: as for B1
B4: “AT” antibody variant N98V (heavy chain CDR3) (antibody, name in Kabat numbering, V domains shown)
VH: B1 VH with D102V
VL: B1 VL
notes: as for B1
B5: “AT” antibody variant N98Q (heavy chain CDR3) (antibody, name in Kabat numbering, V domains shown)
VH: B1 VH with D102Q
VL: B1 VL
notes: as for B1
B6: “AT” antibody variant N98S (heavy chain CDR3) (antibody, name in Kabat numbering, V domains shown)
VH: B1 VH with D102S
VL: B1 VL
notes: as for B1
B7: “AT” antibody variant N98F (heavy chain CDR3) (antibody, name in Kabat numbering, V domains shown)
VH: B1 VH with D102F
VL: B1 VL
notes: as for B1
B8: “AT” antibody variant N98L (heavy chain CDR3) (antibody, name in Kabat numbering, V domains shown)
VH: B1 VH with D102L
VL: B1 VL
notes: as for B1
B9: “AT” antibody variant N98P (heavy chain CDR3) (antibody, name in Kabat numbering, V domains shown)
VH: B1 VH with D102P
VL: B1 VL
notes: as for B1
B10: “AT” antibody variant N98H (heavy chain CDR3) (antibody, name in Kabat numbering, V domains shown)
VH: B1 VH with D102H
VL: B1 VL
notes: as for B1
B11: “AT” antibody variant N98M (heavy chain CDR3) (antibody, name in Kabat numbering, V domains shown)
VH: B1 VH with D102M
VL: B1 VL
notes: as for B1
B12: “AT” antibody variant N98I (heavy chain CDR3) (antibody, name in Kabat numbering, V domains shown)
VH: B1 VH with D102I
VL: B1 VL
notes: as for B1
B13: “AT” antibody variant N98E (heavy chain CDR3) (antibody, name in Kabat numbering, V domains shown)
VH: B1 VH with D102E
VL: B1 VL
notes: as for B1
B14: “AT” antibody variant N98G (heavy chain CDR3) (antibody, name in Kabat numbering, V domains shown)
VH: B1 VH with D102G
VL: B1 VL
notes: as for B1
B15: “AT” antibody variant N98K (heavy chain CDR3) (antibody, name in Kabat numbering, V domains shown)
VH: B1 VH with D102K
VL: B1 VL
notes: as for B1
B16: “AT” antibody variant S96M (heavy chain CDR3) (antibody, name in Kabat numbering, V domains shown)
VH: B1 VH with S100M, D102N
VL: B1 VL
notes: as for B1
B17: “AT” antibody variant S96N (heavy chain CDR3) (antibody, name in Kabat numbering, V domains shown)
VH: B1 VH with S100N, D102N
VL: B1 VL
notes: as for B1
B18: “AT” antibody variant S96E (heavy chain CDR3) (antibody, name in Kabat numbering, V domains shown)
VH: B1 VH with S100E, D102N
VL: B1 VL
notes: as for B1
B19: “AT” antibody variant S96D (heavy chain CDR3) (antibody, name in Kabat numbering, V domains shown)
VH: B1 VH with S100D, D102N
VL: B1 VL
notes: as for B1
B20: “AT” antibody variant S96K (heavy chain CDR3) (antibody, name in Kabat numbering, V domains shown)
VH: B1 VH with S100K, D102N
VL: B1 VL
notes: as for B1
B21: “AT” antibody variant S96V (heavy chain CDR3) (antibody, name in Kabat numbering, V domains shown)
VH: B1 VH with S100V, D102N
VL: B1 VL
notes: as for B1
B22: “AT” antibody variant S96L (heavy chain CDR3) (antibody, name in Kabat numbering, V domains shown)
VH: B1 VH with S100L, D102N
VL: B1 VL
notes: as for B1
B23: “AT” antibody variant S96Q (heavy chain CDR3) (antibody, name in Kabat numbering, V domains shown)
VH: B1 VH with S100Q, D102N
VL: B1 VL
notes: as for B1
B24: “AT” antibody variant S96T (heavy chain CDR3) (antibody, name in Kabat numbering, V domains shown)
VH: B1 VH with S100T, D102N
VL: B1 VL
notes: as for B1
B25: “AT” antibody variant S96F (heavy chain CDR3) (antibody, name in Kabat numbering, V domains shown)
VH: B1 VH with S100F, D102N
VL: B1 VL
notes: as for B1
B26: “AT” antibody variant S96I (heavy chain CDR3) (antibody, name in Kabat numbering, V domains shown)
VH: B1 VH with S100I, D102N
VL: B1 VL
notes: as for B1
B27: “AT” antibody variant S96Y (heavy chain CDR3) (antibody, name in Kabat numbering, V domains shown)
VH: B1 VH with S100Y, D102N
VL: B1 VL
notes: as for B1
B28: “AT” antibody variant S96P (heavy chain CDR3) (antibody, name in Kabat numbering, V domains shown)
VH: B1 VH with S100P, D102N
VL: B1 VL
notes: as for B1
B29: “AT” antibody variant S96H (heavy chain CDR3) (antibody, name in Kabat numbering, V domains shown)
VH: B1 VH with S100H, D102N
VL: B1 VL
notes: as for B1
B30: “AT” antibody variant S96W (heavy chain CDR3) (antibody, name in Kabat numbering, V domains shown)
VH: B1 VH with S100W, D102N
VL: B1 VL
notes: as for B1
B31: “AT” antibody variant S96R (heavy chain CDR3) (antibody, name in Kabat numbering, V domains shown)
VH: B1 VH with S100R, D102N
VL: B1 VL
notes: as for B1
B32: “AT” antibody variant S96G (heavy chain CDR3) (antibody, name in Kabat numbering, V domains shown)
VH: B1 VH with S100G, D102N
VL: B1 VL
notes: as for B1

In the first test the target is T1, human OPGbp [143-317] (human, UniProt O14788 143-317).
T1 construct: also called OPGL
T1 sequence (looked up): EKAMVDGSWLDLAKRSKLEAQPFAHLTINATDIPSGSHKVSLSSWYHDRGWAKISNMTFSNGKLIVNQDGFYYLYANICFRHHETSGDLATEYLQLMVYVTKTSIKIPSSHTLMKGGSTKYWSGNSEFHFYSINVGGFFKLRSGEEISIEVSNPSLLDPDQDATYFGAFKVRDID
Nature of the test: SPR (BIAcore), immobilized OPGbp [143-317]. (SPR reads the build-up and loss of mass on a sensor chip optically.)
B1 had a Kd of 0.46 nM, a koff of 0.00312 s⁻¹ and a kon of 6.85e+06 M⁻¹ s⁻¹.
Regarding B2, the dissociation constant Kd came out at 2.93 nM, the koff came to 0.00768 s⁻¹ and the kon is 2.62e+06 M⁻¹ s⁻¹.
B3 came in with a Kd of 0.3 nM, a koff of 0.00108 s⁻¹ and a kon of 3.59e+06 M⁻¹ s⁻¹.
Taken in the same sequence, the figures for B4 were 0.43 nM, 0.000197 s⁻¹ and 456000 M⁻¹ s⁻¹.
Consider B5, for which binding was characterised by a dissociation constant (Kd) of 0.81 nM, the koff was found to be 0.00151 s⁻¹ and the kon came out at 1.86e+06 M⁻¹ s⁻¹.
Regarding B6, the Kd is 0.58 nM, the koff turned out to be 0.00154 s⁻¹ and the kon came out at 2.67e+06 M⁻¹ s⁻¹.
On the same counts, the results for B7 are 26600 nM, 0.099 s⁻¹ and 3700 M⁻¹ s⁻¹.
Take B8: binding was characterised by a dissociation constant (Kd) of 0.82 nM, the koff was 0.00122 s⁻¹ and the kon stood at 1.48e+06 M⁻¹ s⁻¹.
The molecule B9 had a Kd of 1.13 nM, a koff of 0.00171 s⁻¹ and a kon of 1.51e+06 M⁻¹ s⁻¹.
Take B10: the Kd stood at 1.06 nM, the koff worked out at 0.00234 s⁻¹ and the kon turned out to be 2.2e+06 M⁻¹ s⁻¹.
Taken in the same sequence, the figures for B11 were 27.5 nM, 0.0814 s⁻¹ and 2.96e+06 M⁻¹ s⁻¹.
On the same counts, the results for B12 are 7.6 nM, 0.00436 s⁻¹ and 568000 M⁻¹ s⁻¹.
In the case of B13, the Kd came out at 1.32 nM, the koff came out at 0.00359 s⁻¹ and the kon amounted to 2.72e+06 M⁻¹ s⁻¹.
For the molecule B14, the Kd is 24.3 nM, the koff is 0.00559 s⁻¹ and the kon is 230000 M⁻¹ s⁻¹.
Take B15: the binding result was “no binding”.

In a further test the target is T1, human OPGbp [143-317]. As to the kind of experiment: SPR (BIAcore), immobilized OPGbp [143-317]. The source holds these as a separate data set.
As for B16, binding was characterised by a dissociation constant (Kd) of 2.43 nM, the koff worked out at 0.0087 s⁻¹ and the kon turned out to be 3.57e+06 M⁻¹ s⁻¹.
The molecule B17 returned a Kd of 1.53 nM, a koff of 0.00215 s⁻¹ and a kon of 1.4e+06 M⁻¹ s⁻¹.
In the case of B18, the affinity, expressed as Kd, was 0.35 nM; the koff amounted to 0.000901 s⁻¹; the kon worked out at 2.54e+06 M⁻¹ s⁻¹.
On to B19, for which the Kd came out at 0.51 nM, the off-rate constant (koff) amounted to 0.00118 s⁻¹ and the kon worked out at 2.28e+06 M⁻¹ s⁻¹.
The molecule B20 came in with a Kd of 0.31 nM, a koff of 0.00141 s⁻¹ and a kon of 4.55e+06 M⁻¹ s⁻¹.
Take B21: binding was put at a Kd of 2.25 nM, the koff came out at 0.0121 s⁻¹ and the kon is 5.37e+06 M⁻¹ s⁻¹.
On the same counts, the results for B22 are 0.3 nM, 0.00175 s⁻¹ and 5.84e+06 M⁻¹ s⁻¹.
Taken in the same sequence, the figures for B23 were 3.09 nM, 0.00359 s⁻¹ and 1.16e+06 M⁻¹ s⁻¹.
The molecule B24 came in with a Kd of 0.53 nM, a koff of 0.00167 s⁻¹ and a kon of 3.14e+06 M⁻¹ s⁻¹.
On the same counts, the results for B25 are 8.45 nM, 0.00268 s⁻¹ and 317000 M⁻¹ s⁻¹.
Turning to B26, the affinity, expressed as Kd, was 1.56 nM; the koff was 0.00466 s⁻¹; the kon stood at 2.99e+06 M⁻¹ s⁻¹.
For the molecule B27, the Kd worked out at 0.67 nM, the koff stood at 0.00185 s⁻¹ and the kon worked out at 2.75e+06 M⁻¹ s⁻¹.
Turning to B28, binding was put at a Kd of 1.29 nM, the koff is 0.00188 s⁻¹ and the kon came out at 1.45e+06 M⁻¹ s⁻¹.
On the same counts, the results for B29 are 1.86 nM, 0.00764 s⁻¹ and 4.12e+06 M⁻¹ s⁻¹.
In turn, B30 showed a Kd of 1.26 nM, a koff of 0.00203 s⁻¹ and a kon of 1.61e+06 M⁻¹ s⁻¹.
For B31, the affinity, expressed as Kd, was 0.38 nM; the koff was 0.00262 s⁻¹; the kon was 6.97e+06 M⁻¹ s⁻¹.
In turn, B32 yielded a Kd of 3.85 nM, an off-rate (koff) of 0.015 s⁻¹ and a kon of 3.87e+06 M⁻¹ s⁻¹.
